Measured values published in the supplement of paper PMC10567573.

B1: SOAT1 (parent)
chain: PSNGRIDIKQLIAKKIKLTAEAEE
B2: TRAF3IP2 (parent)
chain: KQGSMNFRFIPVLFPNAKKEHVPT

Variants of: B1
Test: protein stability index of a GFP-peptide fusion (GPS, HEK-293T) (PSI 1-6); higher = more stable
Details: c terminus: a fixed tail appended
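Further: lentivirally expressed fusions sorted by FACS into six bins by GFP to DsRed ratio, PSI derived from sequencing read proportions per bin multiplied by bin number.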

Protein stability index, by site and new letter:
E23: I 2.69; H 2.67; G 2.98; D 3.3; K 3.15; F 1.75; A 2.66; N 2.93; S 2.51; T 3.13; R 2.74; M 2.06; C 2.33
R5: P 4.16; S 3.75; V 3.82; D 4.47; L 4.05; C 3.66; M 3.55; G 4.04; K 3.68; H 4; Q 3.13; F 3.49; A 3.95; W 3.48; E 4.42
I12: C 3.83; W 2.78; N 3.99; Q 4.17; Y 3.19; V 3.48; K 3.83; D 4.28; G 3.9; P 3.7; L 3.17; T 3.89; E 4.35
E24: H 2.94; T 3.44; P 3.24; N 3.07; Y 2.68; L 3.11; R 2.79; G 2.7; W 2.44; A 2.78
G4: R 3.56; N 3.76; E 4.39; T 3.49; H 3.36; P 4.09; V 3.04; F 3.56; Y 2.91; C 3.33; A 3.77
L18: I 3.72; N 3.73; T 3.38; S 3.59; M 3.27; P 4.04; Q 3.89; W 2.9
I6: Q 3.76; N 3.3; P 3.37; A 3.79; M 2.56; H 3.61; K 3.74; Y 3.51; V 3.32; W 2.91; C 3.26; R 3.4
D7: A 2.96; E 3.4; H 3.65; M 2.89; W 3.46; Q 3.01; P 3.23; F 2.83; Y 2.35; R 2.94; G 3.02; S 3.58; I 3.08; C 3.12
P1: K 3.04; Y 3.62; G 3.33; E 2.65; S 3.46; A 3.1; Q 3.23; L 3.06; I 3.57; D 3.27; R 3.35; F 3.22; N 3.14
K14: N 3.59; C 3.37; W 3.07; L 2.24; Q 3.22; V 2.98; H 3.46; E 4.04; Y 2.62; A 2.88; F 2.63; D 3.96; S 3.84
L11: F 3.38; Y 3.42; D 4.04; I 3.17; C 3.5; A 3.83; S 3.75; Q 3.58; V 3.57; G 3.75; H 3.97; R 3.93; W 3.67; K 3.68; P 3.66; T 4.3
Q10: P 3.88; L 3.18; H 2.57; D 3.58; G 3.59; M 2.67; E 3.73; V 2.33; T 3.45; C 3.19; S 3.1; Y 2.43
E21: H 3.13; I 3.19; V 2.59; D 3.43; A 2.74; N 3.13; S 3.02; P 2.92; W 2.12; Y 2.21; C 2.78; M 2.4
T19: D 4.18; Y 2.52; R 2.73; G 3.17; W 2.21; N 3.29; H 3.21; K 2.52; C 3.06; S 2.9; Q 2.96
N3: P 4.11; M 3.66; V 3.58; S 4.13; H 4.32; D 4.38; R 3.93; E 4.27; A 4.25; F 3.55; T 4.2
S2: T 3.79; E 3.46; M 3.11; N 3.61; K 2.58; I 3.33; L 3.09; W 2.88; G 3.64; F 2.94; C 3.26; V 2.96; D 4.03; Q 3.63; A 2.88
A20: T 3.47; Y 2.8; Q 3.44; C 3.44; F 2.51; S 3.61; E 3.88; K 3.47; M 2.71; R 3.07; G 3.42; D 3.16; L 3.1; I 2.7; W 2.66
K15: H 3.17; F 2.47; S 3.59; A 3.19; C 2.5; P 4.22; L 1.87; N 4.05; G 4.05; R 2.88; Q 3.87; T 3.13; D 4.25; E 4.52; W 2.63; I 2.48
K17: L 3.12; D 4.01; T 3.5; P 3.84; I 2.84; A 3.67; C 3.05; S 3.59; M 3.1; W 2.53; E 3.62; G 3.55
K9: D 3.87; W 2.02; F 2.06; L 2.77; T 3.23; C 3.25; M 2.99; H 3.07; P 3.69; S 3.28; N 3.66; A 3.04; R 2.74; Q 3.47; V 2.9
A13: R 3.57; G 3.54; H 3.41; Y 2.97; C 2.82; L 3.13; N 3.35; V 2.84; T 3.08; P 3.94; K 3.48; D 4.08; F 2.94
A22: S 3.26; D 4.05; Q 3.72; V 2.94; F 2.35; Y 2.91; W 2.48; G 3.66; M 3; K 3.15
I8: R 4.06; G 3.89; N 4.01; E 4.62; P 3.38; L 3.62; M 3.44; Y 4.13; F 3.54; Q 3.8; W 3.08; H 3.12; A 3.42
I16: S 3.9; E 4.45; D 4.42; L 3.22; N 4.02; Q 3.52; Y 3.16; G 4.5; H 3.78; A 4.04; T 4.1; M 3.51; F 2.97

Variants of: B2
Test: as above
Details: c terminus: a fixed tail appended

Protein stability index: each site, then its substitutions
K18: I 2.27
P15: D 2.05
S4: C 1.73; W 1.41
G3: L 1.67
P11: M 2.98; V 2.91; H 2.14
A17: Q 2.38; F 1.64
F7: R 2.69
Q2: W 2.27
N16: L 1.66
V22: Y 1.91
E20: Q 2.02
R8: W 2.44
F9: V 2.77
K1: V 1.95; L 1.51
V12: E 2.76; D 2.17; W 2.06
N6: V 1.93; F 1.74; W 1.83
F14: L 1.68; G 2.29; K 2.62
